Test results as given in the DeepSol protein solubility set.

Assay: soluble on expression in E. coli; label from the status in PepcDB or PDB records

Sequence	soluble on expression in E. coli
MNTHHHIVISIGSNYAAETNIPAAMRLLRDSYPTIRFSKPIENAPIDFPYPSGLFTNLTAHFYSSENREEVGRKLKGIELQLGRTYTKPFDGRVAIDLDLIVWNNTILKNVDYSRPYIQSGLQELRINIQTQLNMTKESRSETFFHNKPNNWNCAQAVQKGFQDLTGMTDEAIEEEYRSKGGGRAEGGLCGALYSANRILESKGLQPVSQEFQAHAGGITCRELKGELKFPCNNCVRLAEELVEQRLSESQTID	not soluble
MNTINRNVYPVSGLSTQSVNPDSDGIQPPDVKSGHNSQLIDFSSPQQVNGLQSSLSLSGSRPQVPATRAASDASENPVELLLNKLVEAIRNILKDLLSLFKGDQQQDQAPPPAQTQREQAPSFSQLSQTPSSASPSSPSPSAAPAPAPTPTPTEKPFVVQNDHPADKPVTVQKNTAPTPPDPVQTQDKTSVTAPPKPVAATPAAHPRATTPVTEKPDTEEKVAKPAPRAAHGQGADMSGMIGFAKEANTTGGNNGEVVTVNTVADLKKYMEDDTARTVKLGANLSADSKVSINFGANKTLLGTDKGNSLHNIYLASGKTASNDIFQNLNFTHDSRYRENGDMQMFISSGQKYWIDHITATGTKDQNPKGLDKLLYVGGKADNVSLTNSRFQNNEYGVILGQPDDSADAKAEYKGYPRMTIANNVFSDLDVRAPGLMRHGQFDVFNNSINDFHLGFTATGDATILSQANYFAKGVDVSNKASNSGVLDDYGDAHFKDIGSNVSFTQKSPVTAWTPSYNRDIKTAEAARAYDLANAGAEAVR	not soluble
MNTMVKLPDSRWPGWRRRLYWWMHEAVEAEEVISLDLETTSLDPRRADILSIGAVLVRRGKLVMGERLELYVEPPPSLDAESIRIHKLRRADLEGQLQLEQALRQVLAFIGDRPLLGYYLSFDVAVLNRHLRQLLDRQLHNPSIEISSLYHRKVSRHFPDAHIDLRFDTLARALDVPVSGRHTALGDAQAVALMFMRLLKGPAPKVIH	not soluble
MNTNISGPLISLIVPVYNVKDYLKTCLQSILEQTYKNLEIILVDDGSDDGSSGICDEYARMDQRIKTIHLPHSGVSAARNAGLAAATGELLGFVDSDDWIDHDMYQYLYTLMQEHDADVSACTYLLEQEGRPSKIINNTGKLYVFSRKEIIRALVKNDLVKNYLWAKLFKRKLFDRLSFPVGRVYEDVAVLYKVFYSSQKVVLSCVSKYHYMIHKNESITRGGYDPVKEYHYFLSLYEQDKFIQNAELGGESSVGVLKRGIHLINHTLLCPPSPAFEDIIDETMLKMREYRHITPWQLGPSMSIKRYFMCKHFGFYRMLYRGYRAIFKRKHKLLID	not soluble
MNTPLKRFFKIGYVIENFLHPYHNKKLLPLSRGVNIKGIFVLLNTLWRVFQDGSLQDLWSFT	not soluble
MNTPNSSCTILFENLYDNDLALKLFNNRTIVDNILRNVKGDINNRLELRLVNKSFNLAAIHVIRKENRTVVFHKFNRCDRLHKISPCPDCSVHLNSVKLNKKNIFQYARFLKQTMKIMVIKIRIEDSKRVCCMITDVHQVIHKSLIGSDYDKVEEFVGIDQISFSTCIPCEKIAANCKVFGPVQNDMFNAILRLKHHYDVLQVKDMRLYKLMILNKEDPTVVEDFINSNITCSKLTIFLMYMYEKEAFGYSLPREFLDLLIKKWNVKTVEIVPRQDQPIPYYFHCNTDFIVPKAKFYVDYWTQPRSKYTLDGVEIDLQLTKVVEQQIKNRKSLFDNFIANARRIFPSNKITVRFSKEVCQEMMSQGNVEDFISGIILMTQKDAQPNSHISLKLYPEEVDAPLIDSFLRENFEKKFDSWNLETVSDSSANLPAEKCYQFFNQSTNCKIIFYICC	not soluble
MNTQILGLHHVTAMTSSAEKIYHFFTDILGLRLIKKTVNQDDIETYHLFFADDAGSPGTDMTFFDFPGLPKGTKGTNTISRTSFRVKDDATLDYWVSRFNEYAIDHGEIQERFGKKYLEFEDFDNQRYQLISDEKNQCVAAGTPWKKSNVPSEHALIGLGPAFVTVENYEHLQLVLTEVLGFKLIDAEGSFHLFEVGEGGNGASIIVEHREDLPAAQEGYGNVHHLALRVADEEALRFWIEKINRLEFPNSGFVERFYFKSEYFLAATHVLFELATDGPGFLEDETYEHAGEKLSLPPFLEPKRAGIEEFVRPFDTSDANVQRN	not soluble
MNVIALMAGDSNDFKEKGYTYPKYFLELDNKPLVQNIVESLKKIDCKITFIIRKEDNDQFFLGSSLKILAPFADVVCISGSTKGAVCTTLFAIDSINNEDEVLLINGDQLVKYDINDIIADFRERNLDGGIVTFESVHPRWSYVCLDEQGLVVQTSEKRPISNVATAGIYYYKRGLDLVESCFSVLKKDVQLNGSYYISSTFNELILRQKKVGVYKIDKKEYISFATTQMYENYINKKLEHHHHHH	soluble
MNVKGFRFSAVEAAIKKPGRLDLALICSDAPAAVAAVYTTNKVKAAPVLLDMERTTSGTCRAVVVNSGNANACTGDRGMEDARETTSLVAERIGASEHEVLVCSTGVIGVPLPMERIRGGIPSLVAGLGSATLDQIAAAIMTTDTFPKLEARTGTAGGVGYTIAGIAKGAGMIMPNMATMLAFVVTDAAVDPQWLDRVFRRANDTSFNAITVDGDMSTNDTAIIMANGAAGNPVLSEGSEGAAEFAVLLEEVLLSLAKLIVKDGEGATKFVEVTVKGARSDADAKRAAMAVANSCLVKTAFFGQDANWGRIFAAVGYSGADVEPDRAELFFDDVRMVQGGVFAGGDAEARGTGVLRKKEFTVTVDLHLGDGRATVYTSDLSYDYVKINADYRTLEHHHHHH	not soluble
MNVLIVDDEPLARERLSRMVNEIEGYRVLEDSASNGEEALALIEKHKPDVVLLDIRMPGIDGLQVAAKLCEREAPPAVVFCTAHDEFALEAFQVSAVGYLVKPVRAEHLIEALKKAERPNRVQLAAMTRPAAESGSGPRTHISARTRKGIELIPLDQVIYFIADHKYVTLRHEGGEVLLDEPLKALEDEFGDRFVRIHRNALVARKRIESMKRTPVGHFELFLRGLNGDALIVSRRHVAGVRKMMQQL	soluble
MNVTYLHDEDLDFLQHCSEEQLADFARLLTHNEKGKARLSSVLSHNELFKAMEGHPEQHRRNWQLIAGEFQHYGGDSIANKLRGHGKQYRAILLDVAKRLKLKADKSMSTFEIEQQLLEHFLRHTWQKMDAAHKQEFLQAVDAKVSELEELLPLLMKDRSLAKGVSHLLSTQLTRILRTHAAMSILGHGLLRGAGLGGPVGAALNGVKAMSGSAYRVTIPAVLQIACLRRMMAAVQA	not soluble
MNVYFLGGGNMAAAVAGGLVKQGGYRIYIANRGAEKRERLEKELGVETSATLPELHSDDVLILAVKPQDMEAACKNIRTNGALVLSVAAGLSVGTLSRYLGGTRRIVRVMPNTPGKIGLGVSGMYAEAEVSETDRRIADRIMKSVGLTVWLDDEEKMHGITGISGSGPAYVFYLLDALQNAAIRQGFDMAEARALSLATFKGAVALAEQTGEDFEKLQKNVTSKGGTTHEAVEAFRRHRVAEAISEGVCACVRRSQEMERQYQ	soluble
MNVYNKADSFSLESDSIKDVIHDYICWLSMTDETRPSIGNVFTAMETFKIDAVRYYDGNIYDLAKDINTMSFDSFIRSLQNITSKKDKLTVYGTMGLLSIVVDINKGRDVSNIKFAAGIIILMEYIFDDTDLSHLKIALYRRIQRRYPIDDDR	not soluble
MNYGFVKVAAAVPRVKVADCKFNSERLEGLITIAEGKGVQILTFPEMCITGYTCGDLFAQQLLLEQAEMALIQILNSTRQLDIISILGMPVVVNSTVINAAVVIQKGKILGVVPKTYLPNYKEFYEQRWFTSALQVSENSVRLCGQIVPMGNNLLFETAETTFGIEICEDLWATVPPSSSLALQGAEIIFNLSADDEGIGKHNYLCSLISQQSARCISGYVFSSSGFGESTTDVVFAGNGLIYENGYLLARSERFCMEEQLIINEIDVECIRAERRVNTTFAANKANCPGLEHHHHHH	not soluble
MNYIESLISSVDSQIDTLNKAMIEVQSTIDLLSNGDLASSPEKLISIGSGLFAKGNITIDEDLIVPIGSGIYVAETKERSVERLKKNLEDIKASIQKLLDQRKTLVDQYNTVYATEATRNVK	not soluble
MNYNNKILVSESGLSQKHLIHGDEELFQHELKTIFARNWLFLTHDSLIPAPGDYVTAKMGIDEVIVSRQNDGSIRAFLNVCRHRGKTLVSVEAGNAKGFVCSYHGWGFGSNGELQSVPFEKDLYGESLNKKCLGLKEVARVESFHGFIYGCFDQEAPPLMDYLGDAAWYLEPMFKHSGGLELVGPPGKVVIKANWKAPAENFVGDAYHVGWTHASSLRSGESIFSSLAGNAALPPEGAGLQMTSKYGSGMGVLWDGYSGVHSADLVPELMAFGGAKQERLNKEIGDVRARIYRSHLNCTVFPNNSMLTCSGVFKVWNPIDANTTEVWTYAIVEKDMPEDLKRRLADSVQRTVGPAGFWESDDNDNMETASQNGKKYQSRDSDLLSNLGFGEDVYGDAVYPGVVGKSAIGETSYRGFYRAYQAHVSSSNWAEFEHASSTWHTELTKTTDR	soluble
MNYQNDDLRIKEIKELLPPVALLEKFPATENAANTVAHARKAIHKILKGNDDRLLVVIGPCSIHDPVAAKEYATRLLALREELKDELEIVMRVYFEKPRTTVGWKGLINDPHMDNSFQINDGLRIARKLLLDINDSGLPAAGEFLDMITPQYLADLMSWGAIGARTTESQVHRELASGLSCPVGFKNGTDGTIKVAIDAINAAGAPHCFLSVTKWGHSAIVNTSGNGDCHIILRGGKEPNYSAKHVAEVKEGLNKAGLPAQVMIDFSHANSSKQFKKQMDVCADVCQQIAGGEKAIIGVMVESHLVEGNQSLESGEPLAYGKSITDACIGWEDTDALLRQLANAVKARRG	soluble
MNYSLRQLRIFITVAQAKSFSRAGDRIGLSQSAVSHSVKELERQTGVRLLDRTTREVVLTEAGQQLATRLERVLDELNSILRDAGRVGTQLTGTVRVAASQTISAHLIPQCIAQSNSLYPAIDFVLHDRPQQWVLESIRQGEVDFGIVIDPGAAVDLQCEAILSEPFLLLCRQDHPLAHQEWVSWQDLKQASLVLQDYASGSRPLIDAALAHFAIEADIVQEIGHPATLFPMVEAGIGISVLPALALPLPQGSHLQVKRLTPVVERQLMLARRKNRSLSTAAQALWDVVRTQASELTAARAKDPLYQL	not soluble
MNYVKIGVGGPVGSGKTALIEKLTRILADSYSIGVVTNDIYTKEDAEFLIKNSVLPKERIIGVETGGCPHTAIREDASMNLEAVEELVQRFPDIQIVFIESGGDNLSATFSPELADATIYVIDVAEGDKIPRKGGPGITRSDLLVINKIDLAPYVGASLEVMERDSKKMRGEKPFIFTNLNTNEGVDKIIDWIKKSVLLEGV	soluble
MPAALLISGPCKICDLPAHGNHFGVLSCRACAAFFRRASRSPRFQDKACEYGDCRIFDAGAYRCKICRLKKCYKVGMDASKFQKDRDLISSSNAYLKRTKVYAPQSLANFLGRPEFIISFEPEKASPFKTVIDVTDLVHKAAEIFQEVKVIFWHKPTLHGPIDVFFASNFAVL	soluble
MPAILETNPIAIRACILYEVRQKRPIFESFKNFCNAFGNDFMEYREFERWFYRFYHGNEDLDYDMSREPKTASLSELPIEILFKIVENLNFLDRLLLRNVSPCFRSIAEDHVNEVTNISVTSIPNHVHVCFYHESDYTDIICKRVDDDCVITKMSQYEDSKDWKIEGVSHVTVALNYLSRVLKSPKLKLEKLRLDFLEHNKEDTQCMEELLTVLENSEPHVLNIEFEGLNFHETSSVLKNLKNVEEIQLSMYSIQELSGIEKLVELEQWKTAKTLDISSHEDIEMDIKDLLHFQSIDVRLKSFSVQDAVKVKETLELRTSDFRSGTFRVLNTDTRKIGKVFNPKYTDAANNTFNFKTKNSSFEITMCSKEIYVKRKL	not soluble
